Consider eight molecules from paper doi:10.1101/2021.01.30.428949 (bioRxiv, 2021).

What all share (test): mass photometry
Data set [1] concerns the target At2-CysPRXA F84R variant (Arabidopsis thaliana).
Data set [2] deals with At2-CysPRXA C54S variant (Arabidopsis thaliana).
Data set [3] concerns the molecule itself.
Data set [4] concerns the molecule itself. This is another data set of the same source.
Data set [5] deals with the molecule itself. The source holds these as a separate data set.
Data set [6] deals with the molecule itself. The source holds these as a separate data set.
Data set [7] concerns the molecule itself. The source holds these as a separate data set.

Values joined by “and” are separate entries in the source; they are usually repeats but may differ in a detail not shown here. Equal entries are not always repeated. Where two headings read alike, the source gives them in different places.

Take At2-CysPRXA F84R variant (enzyme): the stoichiometry N (in general, the number of molecules, sites or subunits per partner or assembly) in data set [1] is 2 and 4.
In the case of At2-CysPRXA C54S variant (enzyme), the stoichiometry N in data set [2] stood at 10.

B1: human peroxiredoxin HsPRX3, reduced (enzyme, UniProt P30048 62-256, looked up)
chain: APAVTQHAPYFKGTAVVNGEFKDLSLDDFKGKYLVLFFYPLDFTFVCPTEIVAFSDKANEFHDVNCEVVAVSVDSHFSHLAWINTPRKNGGLGHMNIALLSDLTKQISRDYGVLLEGSGLALRGLFIIDPNGVIKHLSVNDLPVGRSVEETLRLVKAFQYVETHGEVCPANWTPDSPTIKPSPAASKEYFQKVNQ
As for B1, the “stoichiometry N” value in “mass photometry [3]” is 2; in “mass photometry [4]” it was 40 and 20.

B2: human peroxiredoxin HsPRX2, reduced (enzyme, UniProt P32119 1-198, looked up)
chain: MASGNARIGKPAPDFKATAVVDGAFKEVKLSDYKGKYVVLFFYPLDFTFVCPTEIIAFSNRAEDFRKLGCEVLGVSVDSQFTHLAWINTPRKEGGLGPLNIPLLADVTRRLSEDYGVLKTDEGIAYRGLFIIDGKGVLRQITVNDLPVGRSVDEALRLVQAFQYTDEHGEVCPAGWKPGSDTIKPNVDDSKEYFSKHN
B2: the “stoichiometry N” value in the data set “mass photometry [3]” came out at 2; in “mass photometry [4]”, 20.

B3: human peroxiredoxin HsPRX1, reduced (enzyme, UniProt Q06830 1-199, looked up)
chain: MSSGNAKIGHPAPNFKATAVMPDGQFKDISLSDYKGKYVVFFFYPLDFTFVCPTEIIAFSDRAEEFKKLNCQVIGASVDSHFCHLAWVNTPKKQGGLGPMNIPLVSDPKRTIAQDYGVLKADEGISFRGLFIIDDKGILRQITVNDLPVGRSVDETLRLVQAFQFTDKHGEVCPAGWKPGSDTIKPDVQKSKEYFSKQK
For B3, in the data set “mass photometry [3]”, the “stoichiometry N” value was 10.

B4: At2-CysPRXA, oxidized (H2O2-treated) (enzyme, Arabidopsis thaliana, UniProt Q96291 66-266, looked up)
chain: KAQADDLPLVGNKAPDFEAEAVFDQEFIKVKLSDYIGKKYVILFFYPLDFTFVCPTEITAFSDRHSEFEKLNTEVLGVSVDSVFSHLAWVQTDRKSGGLGDLNYPLISDVTKSISKSFGVLIHDQGIALRGLFIIDKEGVIQHSTINNLGIGRSVDETMRTLQALQYIQENPDEVCPAGWKPGEKSMKPDPKLSKEYFSAI
modifications: disulfide bond of the peroxidatic cysteine (CysP54) with the resolving cysteine (CysR176)
For B4, the “stoichiometry N” value in the data set “mass photometry [5]” came to 2.

B5: At2-CysPRXA, hyperoxidized (H2O2 plus DTT) (enzyme, Arabidopsis thaliana, UniProt Q96291 66-266, looked up)
chain: KAQADDLPLVGNKAPDFEAEAVFDQEFIKVKLSDYIGKKYVILFFYPLDFTFVCPTEITAFSDRHSEFEKLNTEVLGVSVDSVFSHLAWVQTDRKSGGLGDLNYPLISDVTKSISKSFGVLIHDQGIALRGLFIIDKEGVIQHSTINNLGIGRSVDETMRTLQALQYIQENPDEVCPAGWKPGEKSMKPDPKLSKEYFSAI
modifications: C54 thiol hyperoxidized to a sulfinic acid residue
In the case of B5, the “stoichiometry N” value in “mass photometry [5]” stood at 10.

B6: Arabidopsis thaliana 2-Cysteine peroxiredoxin A (At2-CysPRXA), wildtype, reduced (enzyme, UniProt Q96291 66-266, looked up)
chain: KAQADDLPLVGNKAPDFEAEAVFDQEFIKVKLSDYIGKKYVILFFYPLDFTFVCPTEITAFSDRHSEFEKLNTEVLGVSVDSVFSHLAWVQTDRKSGGLGDLNYPLISDVTKSISKSFGVLIHDQGIALRGLFIIDKEGVIQHSTINNLGIGRSVDETMRTLQALQYIQENPDEVCPAGWKPGEKSMKPDPKLSKEYFSAI
For the molecule B6, the “ratio of dimer units in the decameric fraction to those in the dimer fraction” value in the data set “mass photometry [6]” is about 5 fold. Also, in the data set “mass photometry [7]”, the dissociation constant (Kd) – broadly, the concentration at which binding is half-saturated – is under 50 nM and the “stoichiometry N” value was found to be 20.
